Source: publication PMC6237739

Key:
rS1-D45 = rS1-D45 (Vibrio vulnificus CMCP6, UniProt A0A3Q0L6Y6); assay: EMSA
rS1 full-length = rS1 full-length (Vibrio vulnificus CMCP6, UniProt A0A3Q0L6Y6); assay: EMSA
rS1-D3 = rS1-D3 (Vibrio vulnificus CMCP6, UniProt A0A3Q0L6Y6 192-260); assay: EMSA
rS1-D5 = rS1-D5 (Vibrio vulnificus CMCP6, UniProt A0A3Q0L6Y6 364-434); assay: EMSA
rS1-D4 = rS1-D4 (Vibrio vulnificus CMCP6, UniProt A0A3Q0L6Y6 277-347); assay: EMSA
rS1-D34 = rS1-D34 (Vibrio vulnificus CMCP6, UniProt A0A3Q0L6Y6); assay: NMR titration

Row | Binder | binding result (rS1-D45) | Kd (rS1 full-length) [µM] | binding result (rS1-D3) | binding result (rS1-D5) | binding result (rS1-D4) | Kd (rS1-D34) [µM]
1 | add Asw full-length (112 nt) (structured_RNA) RNA: GCUUCAUAUAAUCCUAAUGAUAUGGUUUGGGAGUUUCUACCAAGAGCCUUAAACUCUUGAUUAUGAAGUCUGUCGCUUUAUCCGAAAUUUUAUAAAGAGAAGACUCAUGAAU | no binding | 3 ± 1 | no binding | no binding | no binding | –
2 | ACUCAUGAAU (ssRNA) [Asw-10] | – | – | – | – | – | 57 ± 6
3 | UCAUGAAU (ssRNA) [Asw-8] | – | – | – | – | – | 197 ± 50
